Results reported in IntAct's records for PubMed 24508339.

B1: Mitochondrial dynamics protein MID51 (Mus musculus), Q8BGV8 (parent)
chain: MAGAGERKGKKDDNGIGTAIDFVLSNARLVLGVGGAAMLGIATLAVKRMYDRAISAPTSPTRLSHSGKRSWEEPNWMGSPRLLNKDMKAGLSRSLQTLPTDSSAFDTDTFCPPRPKPLARRGQVDLKKSRLRMSLQEKLLSYYRNRAAIPAGEQARAKQAAVDICAELRSFLRAKLPDMPLRDMYLSGSLYDDLQVVTADHIQLIVPLVLEQNLWSCIPGEDTIMNVPGFFLVRRENPEYFPRGSSYWDRCVVGGYLSPKTVADTFEKVVAGSINWPAIGSLLDYVIRPAPPPEALTLEVQYEKDKHLVIDFLPSVTLGDTVLVARPHRLAQYDNLWRLSLRPAETARLRALDQADSGCRSLCLKILKAICKSTPALGHLTASQLTNVILHLAQEEADWSPDMLADRFLQALRGLISYLEAGVLPSALNPKVNLFAELTPQEIDELGYTLYCSLSEPEVLLQT

Variants of: B1
Settings: with Dnm1l

Question: Which “effect of a mutation on the interaction” value does the source give for V253E;G254E;G255E here?
Answer: The value was “disrupting interaction strength”.

Question: With R234A;R235A;N237A as the variant, how does the “effect of a mutation on the interaction” value read?
Answer: Its value is “disrupting interaction strength”.

Question: How did the “effect of a mutation on the interaction” value turn out when E239A;Y240A;R243A was run?
Answer: The value was “decreasing interaction strength”.

Variants of: B1
Settings: with Dnm1l
Remark: another data set of the same source

Question: With E239A;Y240A;R243A as the variant, how does the “effect of a mutation on the interaction” value read?
Answer: The value was “disrupting interaction strength”.
